Measured values published in patent US20170306033A1 (Amgen, published 2017).

T1: human PAC1 receptor (human, UniProt P41586 21-468)
T1 sequence: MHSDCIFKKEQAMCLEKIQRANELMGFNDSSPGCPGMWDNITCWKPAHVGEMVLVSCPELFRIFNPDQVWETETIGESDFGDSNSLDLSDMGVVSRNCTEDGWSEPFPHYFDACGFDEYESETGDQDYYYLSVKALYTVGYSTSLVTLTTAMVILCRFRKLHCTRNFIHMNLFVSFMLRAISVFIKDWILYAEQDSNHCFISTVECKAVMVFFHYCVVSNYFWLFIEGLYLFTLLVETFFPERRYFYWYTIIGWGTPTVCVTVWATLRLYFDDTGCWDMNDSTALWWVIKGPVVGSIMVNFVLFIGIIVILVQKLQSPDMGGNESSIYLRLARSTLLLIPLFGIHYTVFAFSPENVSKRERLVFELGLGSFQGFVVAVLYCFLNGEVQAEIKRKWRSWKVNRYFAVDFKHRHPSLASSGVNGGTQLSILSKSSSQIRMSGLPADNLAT


Assays:
[1] = molecular target: human CGRP receptor (human, UniProt Q16602 23-461; O60894 27-148); test: cell-based or functional assay
human CGRP receptor, sequence (Q16602 23-461 limits assumed, chain 1 of 2): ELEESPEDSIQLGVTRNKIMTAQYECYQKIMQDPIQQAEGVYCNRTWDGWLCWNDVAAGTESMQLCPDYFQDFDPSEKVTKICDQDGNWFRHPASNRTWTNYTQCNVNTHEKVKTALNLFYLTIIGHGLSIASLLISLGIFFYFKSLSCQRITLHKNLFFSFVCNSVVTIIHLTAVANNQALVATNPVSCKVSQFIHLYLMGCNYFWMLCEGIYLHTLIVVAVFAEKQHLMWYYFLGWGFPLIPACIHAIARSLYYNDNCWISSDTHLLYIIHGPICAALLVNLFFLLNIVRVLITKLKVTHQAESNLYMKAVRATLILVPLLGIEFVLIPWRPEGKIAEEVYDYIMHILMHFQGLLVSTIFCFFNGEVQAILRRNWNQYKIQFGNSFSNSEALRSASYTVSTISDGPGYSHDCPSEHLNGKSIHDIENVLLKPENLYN
human CGRP receptor, sequence (O60894 27-148 limits assumed, chain 2 of 2): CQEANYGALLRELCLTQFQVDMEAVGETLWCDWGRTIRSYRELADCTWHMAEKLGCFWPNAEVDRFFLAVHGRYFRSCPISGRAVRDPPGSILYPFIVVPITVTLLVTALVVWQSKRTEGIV

[2] = molecular target: T1, human PAC1 receptor; test: cell-based or functional assay

| % inhibition of human CGRPR [1] [%] | % inhibition of human PAC1 [2] [%] | Binder |
| --- | --- | --- |
| 73 | 92 | iPS:326648 (bispecific antibody, human IgG2, kappa, lambda) light 1: EIVLTQSPATLSLSPGERATLSCRASQSVGRSLHWYQQKPGQAPRLLIKYASQSLSGIPARFSGSGSGTDFTLTISSLEPEDFAVYYCHQSSRLPFTFGPGTKVDIKRTVAAPSVFIFPPSDEQLKSGTASVVCLLNNFYPREAKVQWKVDNALQSGNSQESVTEQDSKDSTYSLESTLTLSKADYEKHKVYACEVTHQGLSSPVTKSFNRGEC heavy 1: QVQLVESGGGVVQPGRSLRLSCAASGFTFSRFAMHWVRQAPGKGLEWVAVISYDGGNKYYAESVKGRFTISRDNSKNTLYLQMNSLRAEDTALFYCARGYDVLTGYPDYWGQGTLVTVSSASTKGPSVFPLAPCSRSTSESTAALGCLVKDYFPEPVTVSWNSGALTSGVHTFPAVLQSSGLYSLKSVVTVPSSNFGTQTYTCNVDHKPSNTKVDKTVERKCCVECPPCPAPPVAGPSVFLFPPKPKDTLMISRTPEVTCVVVDVSHEDPEVQFNWYVDGVEVHNAKTKPREEQFNSTFRVVSVLTVVHQDWLNGKEYKCKVSNKGLPAPIEKTISKTKGQPREPQVYTLPPSREEMTKNQVSLTCLVDGFYPSDIAVEWESNGQPENNYDTTPPMLDSDGSFFLYSDLTVDKSRWQQGNVFSCSVMHEALHNHYTQKSLSLSPGK light 2: not shown heavy 2: not shown |
| 78 | 33 | iPS:328047 (bispecific antibody, human IgG1, kappa, lambda, N297G) light 1: DIQMTQSPSSLSASVGDRITITCRASQSISRYLNWYQQKPGKAPKLLIYAASSLQSGIPSRFSGSGSGTDFTLTINSLQPEDFATYFCQQSYSPPFTFGQGTKVDIKRTVAAPSVFIFPPSDEQLKSGTASVVCLLNNFYPREAKVQWKVDNALQSGNSQESVTEQDSKDSTYSLESTLTLSKADYEKHKVYACEVTHQGLSSPVTKSFNRGEC heavy 1: not shown light 2: QSVLTQPPSVSAAPGQKVTISCSGSSSNIGNNYVSWYQQLPGTAPKLLIYDNNKRPSGIPDRFSGSKSGTSTTLGITGLQTGDEADYYCGTWDSRLSAVVFGGGTKLTVLGQPKANPTVTLFPPSSEELQANKATLVCLISDFYPGAVTVAWKADGSPVKAGVETTKPSKQSNNKYAAKSYLSLTPEQWKSHRSYSCQVTHEGSTVEKTVAPTECS heavy 2: QVQLVESGGGVVQPGRSLRLSCAASGFTFSSFGMHWVRQAPGKGLEWVAVISFDGSIKYSVDSVKGRFTISRDNSKNTLFLQMNSLRAEDTAVYYCARDRLNYYDSSGYYHYKYYGMAVWGQGTTVTVSSASTKGPSVFPLAPSSKSTSGGTAALGCLVKDYFPEPVTVSWNSGALTSGVHTFPAVLQSSGLYSLESVVTVPSSSLGTQTYICNVNHKPSNTKVDKKVEPKSCDKTHTCPPCPAPELLGGPSVFLFPPKPKDTLMISRTPEVTCVVVDVSHEDPEVKFNWYVDGVEVHNAKTKPCEEQYGSTYRCVSVLTVLHQDWLNGKEYKCKVSNKALPAPIEKTISKAKGQPREPQVYTLPPSRKEMTKNQVSLTCLVKGFYPSDIAVEWESNGQPENNYKTTPPVLKSDGSFFLYSKLTVDKSRWQQGNVFSCSVMHEALHNHYTQKSLSLSPGK |
